Positions count from the first letter of the chain named. Names and notes keep the numbering of the source.
B1: GLS3000 K50S one-arm antibody (antibody, human IgG1, kappa, L234A L235A, N297A, name in Kabat numbering)
heavy: QVQLVESGGGVVQPGRSLRLSCAASGFTFSNAWMHWVRQAPGKGLEWVAQIKAKSNNYATYYAESVKGRFTISRDDSKNSLYLQMNSLKTEDTAVYYCRYVHYGAYYGVDAWGQGTTVTVSSASTKGPSVFPLAPSSKSTSGGTAALGCLVKDYFPEPVTVSWNSGALTSGVHTFPAVLQSSGLYSLSSVVTVPSSSLGTQTYICNVNHKPSNTKVDKKVEPKSCDKTHTCPPCPAPEAAGGPSVFLFPPKPKDTLMISRTPEVTCVVVDVSHEDPEVKFNWYVDGVEVHNAKTKPREEQYASTYRVVSVLTVLHQDWLNGKEYKCKVSNKALPAPIEKTISKAKGQPREPQVYTLPPSRCELTKNQVSLSCAVKGFYPSDIAVEWESNGQPENNYKTTPPVLDSDGSFFLVSKLTVDKSRWQQGNVFSCSVMHEALHNHYTQKSLSLSPDYKDDDDK
chain: EPKSSDKTHTCPPCPAPELLGGPSVFLFPPKPKDTLMISRTPEVTCVVVDVSHEDPEVKFNWYVDGVEVHNAKTKPREEQYNSTYRVVSVLTVLHQDWLNGKEYKCKVSNKALPAPIEKTISKAKGQPREPQVCTLPPSRDELTKNQVSLWCLVKGFYPSDIAVEWESNGQPENNYKTTPPVLDSDGSFFLYSKLTVDKSRWQQGNVFSCSVMHEALHNRYTQKSLSLSP
light: DIVMTQSPLSLPVTPGEPASISCRSSQSLVHSNRNTYLHWYQQKPGQAPRLLIYSVSNRFSGVPDRFSGSGSGTDFTLKISRVEAEDVGVYYCGQGTQVPYTFGQGTKLEIKRTVAAPSVFIFPPSDEQLKSGTASVVCLLNNFYPREAKVQWKVDNALQSGNSQESVTEQDSKDSTYSLSSTLTLSKADYEKHKVYACEVTHQGLSSPVTKSFNRGEC
B2: GLS3000 N28F one-arm antibody (antibody, human IgG1, kappa, L234A L235A, N297A, name in Kabat numbering)
heavy: B1 heavy
chain: B1 chain
light: B1 light with N33F, S55K
B3: GLS3000 N28G one-arm antibody (antibody, human IgG1, kappa, L234A L235A, N297A, name in Kabat numbering)
heavy: B1 heavy
chain: B1 chain
light: B1 light with N33G, S55K
B4: GLS3000 K50T one-arm antibody (antibody, human IgG1, kappa, L234A L235A, N297A, name in Kabat numbering)
heavy: B1 heavy
chain: B1 chain
light: B1 light with S55T
B5: GLS3000 L27bE one-arm antibody (antibody, human IgG1, kappa, L234A L235A, N297A, name in Kabat numbering)
heavy: B1 heavy
chain: B1 chain
light: B1 light with L29E, S55K
B6: GLS3000 L27bV one-arm antibody (antibody, human IgG1, kappa, L234A L235A, N297A, name in Kabat numbering)
heavy: B1 heavy
chain: B1 chain
light: B1 light with L29V, S55K
B7: GLS3000 L27bD one-arm antibody (antibody, human IgG1, kappa, L234A L235A, N297A, name in Kabat numbering)
heavy: B1 heavy
chain: B1 chain
light: B1 light with L29D, S55K
B8: GLS3000 L27bP one-arm antibody (antibody, human IgG1, kappa, L234A L235A, N297A, name in Kabat numbering)
heavy: B1 heavy
chain: B1 chain
light: B1 light with L29P, S55K
B9: GLS3000 K74T one-arm antibody (antibody, human IgG1, kappa, L234A L235A, N297A, name in Kabat numbering)
heavy: B1 heavy
chain: B1 chain
light: B1 light with S55K, K79T
B10: GLS3000 N28A one-arm antibody (antibody, human IgG1, kappa, L234A L235A, N297A, name in Kabat numbering)
heavy: B1 heavy
chain: B1 chain
light: B1 light with N33A, S55K
B11: GLS3000 L27bY one-arm antibody (antibody, human IgG1, kappa, L234A L235A, N297A, name in Kabat numbering)
heavy: B1 heavy
chain: B1 chain
light: B1 light with L29Y, S55K
B12: GLS3000 L33D one-arm antibody (antibody, human IgG1, kappa, L234A L235A, N297A, name in Kabat numbering)
heavy: B1 heavy
chain: B1 chain
light: B1 light with L38D, S55K
B13: GLS3000 L33I one-arm antibody (antibody, human IgG1, kappa, L234A L235A, N297A, name in Kabat numbering)
heavy: B1 heavy
chain: B1 chain
light: B1 light with L38I, S55K
B14: GLS3000 K50Y one-arm antibody (antibody, human IgG1, kappa, L234A L235A, N297A, name in Kabat numbering)
heavy: B1 heavy
chain: B1 chain
light: B1 light with S55Y
B15: GLS3000 K107E one-arm antibody (antibody, human IgG1, kappa, L234A L235A, N297A, name in Kabat numbering)
heavy: B1 heavy
chain: B1 chain
light: B1 light with S55K, K112E
B16: GLS3000 N28D one-arm antibody (antibody, human IgG1, kappa, L234A L235A, N297A, name in Kabat numbering)
heavy: B1 heavy
chain: B1 chain
light: B1 light with N33D, S55K
B17: GLS3000 L33E one-arm antibody (antibody, human IgG1, kappa, L234A L235A, N297A, name in Kabat numbering)
heavy: B1 heavy
chain: B1 chain
light: B1 light with L38E, S55K
B18: GLS3000 L27bI one-arm antibody (antibody, human IgG1, kappa, L234A L235A, N297A, name in Kabat numbering)
heavy: B1 heavy
chain: B1 chain
light: B1 light with L29I, S55K
B19: GLS3000 L27bF one-arm antibody (antibody, human IgG1, kappa, L234A L235A, N297A, name in Kabat numbering)
heavy: B1 heavy
chain: B1 chain
light: B1 light with L29F, S55K
B20: GLS3000 N28K one-arm antibody (antibody, human IgG1, kappa, L234A L235A, N297A, name in Kabat numbering)
heavy: B1 heavy
chain: B1 chain
light: B1 light with N33K, S55K
B21: GLS3000 N28P one-arm antibody (antibody, human IgG1, kappa, L234A L235A, N297A, name in Kabat numbering)
heavy: B1 heavy
chain: B1 chain
light: B1 light with N33P, S55K
B22: GLS3000 L33P one-arm antibody (antibody, human IgG1, kappa, L234A L235A, N297A, name in Kabat numbering)
heavy: B1 heavy
chain: B1 chain
light: B1 light with L38P, S55K
B23: GLS3000 N28H one-arm antibody (antibody, human IgG1, kappa, L234A L235A, N297A, name in Kabat numbering)
heavy: B1 heavy
chain: B1 chain
light: B1 light with N33H, S55K
B24: GLS3000 N28I one-arm antibody (antibody, human IgG1, kappa, L234A L235A, N297A, name in Kabat numbering)
heavy: B1 heavy
chain: B1 chain
light: B1 light with N33I, S55K
B25: GLS3000 L27bM one-arm antibody (antibody, human IgG1, kappa, L234A L235A, N297A, name in Kabat numbering)
heavy: B1 heavy
chain: B1 chain
light: B1 light with L29M, S55K
B26: GLS3000 N28E one-arm antibody (antibody, human IgG1, kappa, L234A L235A, N297A, name in Kabat numbering)
heavy: B1 heavy
chain: B1 chain
light: B1 light with N33E, S55K
B27: GLS3000 L33V one-arm antibody (antibody, human IgG1, kappa, L234A L235A, N297A, name in Kabat numbering)
heavy: B1 heavy
chain: B1 chain
light: B1 light with L38V, S55K
B28: GLS3000 L33A one-arm antibody (antibody, human IgG1, kappa, L234A L235A, N297A, name in Kabat numbering)
heavy: B1 heavy
chain: B1 chain
light: B1 light with L38A, S55K
B29: GLS3000 L33M one-arm antibody (antibody, human IgG1, kappa, L234A L235A, N297A, name in Kabat numbering)
heavy: B1 heavy
chain: B1 chain
light: B1 light with L38M, S55K
B30: GLS3000 N28M one-arm antibody (antibody, human IgG1, kappa, L234A L235A, N297A, name in Kabat numbering)
heavy: B1 heavy
chain: B1 chain
light: B1 light with N33M, S55K
B31: GLS3000 L33F one-arm antibody (antibody, human IgG1, kappa, L234A L235A, N297A, name in Kabat numbering)
heavy: B1 heavy
chain: B1 chain
light: B1 light with L38F, S55K
B32: GLS3000 N28L one-arm antibody (antibody, human IgG1, kappa, L234A L235A, N297A, name in Kabat numbering)
heavy: B1 heavy
chain: B1 chain
light: B1 light with N33L, S55K
B33: GLS3000 L27bS one-arm antibody (antibody, human IgG1, kappa, L234A L235A, N297A, name in Kabat numbering)
heavy: B1 heavy
chain: B1 chain
light: B1 light with L29S, S55K
B34: GLS3000 L27bW one-arm antibody (antibody, human IgG1, kappa, L234A L235A, N297A, name in Kabat numbering)
heavy: B1 heavy
chain: B1 chain
light: B1 light with L29W, S55K

biological target: T1, CD3ε homodimer protein (human, UniProt P07766 23-126, limits assumed); assay: SPR Biacore T200, CD3ε homodimer on chip;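 also: Light-chain single-residue variant antibodies injected over amine-coupled CD3ε homodimer on a CM4 chip at 25 °C, bound amount divided by that of the GLS3000-containing antibody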
T1 construct: also called CD3 (CD3ε)
T1 sequence (P07766 23-126 limits assumed): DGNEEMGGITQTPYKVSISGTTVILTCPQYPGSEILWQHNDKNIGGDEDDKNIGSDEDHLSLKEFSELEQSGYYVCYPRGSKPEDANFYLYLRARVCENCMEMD

Binder	ratio of amount bound vs unaltered GLS3000
B1	0.23
B2	0.46
B3	0.46
B4	0.19
B5	0.17
B6	1.12
B7	0.17
B8	0.91
B9	0.84
B10	0.25
B11	0.25
B12	0.17
B13	0.83
B14	0.24
B15	0.94
B16	0.19
B17	0.72

Binder	ratio of amount bound vs unaltered GLS3000
B18	1.19
B19	0.42
B20	0.44
B21	0.36
B22	0.3
B23	0.42
B24	0.44
B25	0.71
B26	0.4
B27	1.05
B28	0.85
B29	0.93
B30	0.39
B31	0.78
B32	0.39
B33	0.71
B34	0.26

From patent publication US20260049138A1 (Chugai, published 2026)
